Patent publication US20150344570A1 (published 2015)

B1: GpH7-A5/GpH7-B3 variant K326_16H/GpL16-k0 (antibody, human IgG1, kappa)
heavy 1: not shown
heavy 2: not shown
light: DIVMTQSPLSLPVTPGEPASISCQASESLVHSNRNTYLHWYLQKPGQSPQLLIYKVSNRFSGVPDRFSGSGSGTDFTLKISRVEAEDVGVYYCSQNTHVPPTFGQGTKVEIERTVAAPSVFIFPPSDEQLKSGTASVVCLLNNFYPREAKVQWKVDNALQSGNSQESVTEQDSKDSTYSLSSTLTLSKADYEKHKVYACEVTHQGLSSPVTKSFNRGEC
notes: IgG1, anti-glypican-3; also called He Ab
B2: GpH7-A5/GpH7-B3 variant P271_09D/GpL16-k0 (antibody, human IgG1, kappa)
heavy 1: not shown
heavy 2: not shown
light: B1 light
notes: as for B1
B3: GpH7-A5/GpH7-B3 variant H268_15Y/GpL16-k0 (antibody, human IgG1, kappa)
heavy 1: not shown
heavy 2: not shown
light: B1 light
notes: as for B1
B4: GpH7-A5/GpH7-B3 variant S337_03V/GpL16-k0 (antibody, human IgG1, kappa)
heavy 1: not shown
heavy 2: not shown
light: B1 light
notes: He Ab: mutation in one H chain only; also called He Ab
B5: GpH7-A5/GpH7-B3 variant H268_20W/GpL16-k0 (antibody, human IgG1, kappa)
heavy 1: not shown
heavy 2: not shown
light: B1 light
notes: as for B1
B6: GpH7-A5/GpH7-B3 variant Y300_07I/GpL16-k0 (antibody, human IgG1, kappa)
heavy 1: not shown
heavy 2: not shown
light: B1 light
notes: as for B4
B7: GpH7-A5/GpH7-B3 variant Y300_02A/GpL16-k0 (antibody, human IgG1, kappa)
heavy 1: not shown
heavy 2: not shown
light: B1 light
notes: as for B4
B8: GpH7-A5/GpH7-B3 variant Y300_08L/GpL16-k0 (antibody, human IgG1, kappa)
heavy 1: not shown
heavy 2: not shown
light: B1 light
notes: as for B4
B9: GpH7-A5/GpH7-B3 variant H268_01G/GpL16-k0 (antibody, human IgG1, kappa)
heavy 1: not shown
heavy 2: not shown
light: B1 light
notes: as for B1
B10: GpH7-A5/GpH7-B3 variant S239_08L/GpL16-k0 (antibody, human IgG1, kappa)
heavy 1: not shown
heavy 2: not shown
light: B1 light
notes: as for B1
B11: GpH7-A5/GpH7-B3 variant Y300_16H/GpL16-k0 (antibody, human IgG1, kappa)
heavy 1: not shown
heavy 2: not shown
light: B1 light
notes: as for B4
B12: GpH7-A5/GpH7-B3 variant P238_04F/GpL16-k0 (antibody, human IgG1, kappa)
heavy 1: not shown
heavy 2: not shown
light: B1 light
notes: as for B1
B13: GpH7-A5/GpH7-B3 variant Y300_03V/GpL16-k0 (antibody, human IgG1, kappa)
heavy 1: not shown
heavy 2: not shown
light: B1 light
notes: as for B4
B14: GpH7-A5/GpH7-B3 variant P271_08L/GpL16-k0 (antibody, human IgG1, kappa)
heavy 1: not shown
heavy 2: not shown
light: B1 light
notes: as for B1
B15: GpH7-A5/GpH7-B3 variant P238_03V/GpL16-k0 (antibody, human IgG1, kappa)
heavy 1: not shown
heavy 2: not shown
light: B1 light
notes: as for B1
B16: GpH7-A5/GpH7-B3 variant Y300_14T/GpL16-k0 (antibody, human IgG1, kappa)
heavy 1: not shown
heavy 2: not shown
light: B1 light
notes: as for B4
B17: GpH7-A5/GpH7-B3 variant L235_09D/GpL16-k0 (antibody, human IgG1, kappa)
heavy 1: not shown
heavy 2: not shown
light: B1 light
notes: as for B1
B18: GpH7-A5/GpH7-B3 variant S239_03V/GpL16-k0 (antibody, human IgG1, kappa)
heavy 1: not shown
heavy 2: not shown
light: B1 light
notes: as for B1
B19: GpH7-A5/GpH7-B3 variant S337_11K/GpL16-k0 (antibody, human IgG1, kappa)
heavy 1: not shown
heavy 2: not shown
light: B1 light
notes: as for B4
B20: GpH7-A5/GpH7-B3 variant S337_06M/GpL16-k0 (antibody, human IgG1, kappa)
heavy 1: not shown
heavy 2: not shown
light: B1 light
notes: as for B4
B21: GpH7-A5/GpH7-B3 variant Y300_05P/GpL16-k0 (antibody, human IgG1, kappa)
heavy 1: not shown
heavy 2: not shown
light: B1 light
notes: as for B4
B22: GpH7-A5/GpH7-B3 variant S337_12R/GpL16-k0 (antibody, human IgG1, kappa)
heavy 1: not shown
heavy 2: not shown
light: B1 light
notes: as for B4
B23: GpH7-A5/GpH7-B3 variant Y300_20W/GpL16-k0 (antibody, human IgG1, kappa)
heavy 1: not shown
heavy 2: not shown
light: B1 light
notes: as for B4
B24: GpH7-A5/GpH7-B3 variant P271_10E/GpL16-k0 (antibody, human IgG1, kappa)
heavy 1: not shown
heavy 2: not shown
light: B1 light
notes: as for B1

What was measured:
[1] = target: T1, FcγRIIIa extracellular domain with C-terminal His tag (human, UniProt P08637 17-208); test: SPR (Biacore), relative to GpH7-A5/GpH7-B3/GpL16-k0 = 100
T1 construct: extracellular domain; also called 3a; FcgRIIIa; not shown: His tag at the C terminus

[2] = target: T2, FcγRIIb extracellular domain with C-terminal His tag (human, UniProt P31994 43-217); test: as above
T2 construct: extracellular domain; also called 2b; FcgRIIb; not shown: His tag at the C terminus
T2 sequence (looked up): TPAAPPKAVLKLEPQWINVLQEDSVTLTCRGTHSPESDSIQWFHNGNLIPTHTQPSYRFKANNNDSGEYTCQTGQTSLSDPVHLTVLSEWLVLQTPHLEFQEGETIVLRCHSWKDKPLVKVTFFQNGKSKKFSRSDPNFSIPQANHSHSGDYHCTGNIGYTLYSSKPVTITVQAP

[3] = target: T3, FcγRIa (human, UniProt P12314 16-292); test: SPR (Biacore), captured antibody, FcγR as analyte, relative binding
T3 construct: extracellular domain; Soluble extracellular domain with C-terminal His tag, used as analyte; also called FcgRI; CD64; not shown: His tag at the C terminus

[4] = target: T4, FcγRIIb (human, UniProt P31994 43-217); test: as above
T4 construct: extracellular domain; Soluble extracellular domain with C-terminal His tag, used as analyte; also called FcgRIIb; CD32B; not shown: His tag at the C terminus
T4 sequence (looked up): T2 sequence (looked up)

T3 sequence (P12314 16-292): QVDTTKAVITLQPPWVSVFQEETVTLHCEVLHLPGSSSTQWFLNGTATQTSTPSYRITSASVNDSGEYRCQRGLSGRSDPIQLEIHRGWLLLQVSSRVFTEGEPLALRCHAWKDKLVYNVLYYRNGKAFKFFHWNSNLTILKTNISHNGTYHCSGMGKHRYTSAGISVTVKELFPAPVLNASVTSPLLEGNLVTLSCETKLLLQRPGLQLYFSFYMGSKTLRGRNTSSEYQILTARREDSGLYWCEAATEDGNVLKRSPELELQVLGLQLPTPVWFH
T1 sequence (P08637 17-208): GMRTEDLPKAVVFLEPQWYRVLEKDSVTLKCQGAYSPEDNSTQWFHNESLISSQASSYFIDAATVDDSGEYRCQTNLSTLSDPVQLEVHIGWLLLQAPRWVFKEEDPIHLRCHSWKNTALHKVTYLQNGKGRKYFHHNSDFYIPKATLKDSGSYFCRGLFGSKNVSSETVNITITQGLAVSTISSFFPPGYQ

He/Con_3a [1] | He/Con_2b [2] | He/Con_1a [3] | He/Con_2b [4] | Binder
96.1 % (control = 100) | 119 % (control = 100) | – | – | B1
93.1 % (control = 100) | 120 % (control = 100) | – | – | B2
97.5 % (control = 100) | 106 % (control = 100) | – | – | B3
– | – | 107 % of GpH7-A5/GpH7-B3/GpL16-k0 | 98.9 % of GpH7-A5/GpH7-B3/GpL16-k0 | B4
82.8 % (control = 100) | 111 % (control = 100) | – | – | B5
– | – | 108 % of GpH7-A5/GpH7-B3/GpL16-k0 | 74.5 % of GpH7-A5/GpH7-B3/GpL16-k0 | B6
– | – | 112 % of GpH7-A5/GpH7-B3/GpL16-k0 | 69.2 % of GpH7-A5/GpH7-B3/GpL16-k0 | B7
– | – | 113 % of GpH7-A5/GpH7-B3/GpL16-k0 | 73.6 % of GpH7-A5/GpH7-B3/GpL16-k0 | B8
96.7 % (control = 100) | 144 % (control = 100) | – | – | B9
95.3 % (control = 100) | 140 % (control = 100) | – | – | B10
– | – | 111 % of GpH7-A5/GpH7-B3/GpL16-k0 | 87 % of GpH7-A5/GpH7-B3/GpL16-k0 | B11
46.7 % (control = 100) | 312 % (control = 100) | – | – | B12
– | – | 117 % of GpH7-A5/GpH7-B3/GpL16-k0 | 73.9 % of GpH7-A5/GpH7-B3/GpL16-k0 | B13
71 % (control = 100) | 103 % (control = 100) | – | – | B14
43.8 % (control = 100) | 120 % (control = 100) | – | – | B15
– | – | 112 % of GpH7-A5/GpH7-B3/GpL16-k0 | 55.6 % of GpH7-A5/GpH7-B3/GpL16-k0 | B16
91.6 % (control = 100) | 106 % (control = 100) | – | – | B17
76.6 % (control = 100) | 108 % (control = 100) | – | – | B18
– | – | 104 % of GpH7-A5/GpH7-B3/GpL16-k0 | 94.3 % of GpH7-A5/GpH7-B3/GpL16-k0 | B19
– | – | 107 % of GpH7-A5/GpH7-B3/GpL16-k0 | 96.7 % of GpH7-A5/GpH7-B3/GpL16-k0 | B20
– | – | 60.2 % of GpH7-A5/GpH7-B3/GpL16-k0 | 7.3 % of GpH7-A5/GpH7-B3/GpL16-k0 | B21
– | – | 106 % of GpH7-A5/GpH7-B3/GpL16-k0 | 99.5 % of GpH7-A5/GpH7-B3/GpL16-k0 | B22
– | – | 112 % of GpH7-A5/GpH7-B3/GpL16-k0 | 84.1 % of GpH7-A5/GpH7-B3/GpL16-k0 | B23
93.6 % (control = 100) | 109 % (control = 100) | – | – | B24
